Results as given in patent publication US8889130B2, “Treatment of osteoarthritis and pain” (Abbvie Inc., priority 2011, dated 2014).

Assays:
[1] = tested on: male DBA-1 mice; assay: Collagen-induced arthritis mouse model (rheumatoid arthritis); format: in vivo; settings: therapeutic mode; 1-3 mg/kg intraperitoneally every other day after disease onset
Procedure: The therapeutic effects of anti-IL-1α, anti-IL-1β, combined anti-IL-1α/anti-IL-1β, and murine IL-1α/β DVD4-Ig, were evaluated in a collagen-induced arthritis mouse model well known in the art. Briefly, male DBA-1 mice were immunized with bovine type II collagen in CFA at the base of the tail. The mice were boosted with Zymosan intraperitoneally (i.p) at day 21. After disease onset at day 24-27, mice were selected and divided into separate groups of 10 mice each. […] To neutralize IL-1, mice were injected every other day with 1-3 mg/kg of anti-IL-1α mAb, anti-IL-1βmAb, combination of anti-IL-1α and anti-IL-1β mAbs, or murine IL-1α/β DVD4-Ig intraperitoneally. Mice were carefully examined three times a week for the visual appearance of arthritis in peripheral joints, and scores for disease activity determined.

[2] = tested on: male Swiss Webster mice; assay: Joint instability model (JIM) of osteoarthritis, cartilage degeneration histology; format: in vivo, mouse; settings: Example 3.3.3 (FIG. 4); 21 day study; anti-IL-1β mAb 3, 6, 12 mg/kg; combination 6 mg/kg each
Procedure: The design of study of the in vivo activity of a mIL-1α/β DVD-Ig molecule in the joint instability model (JIM) of osteoarthritis in mice is shown in Table 19. All groups contained 25 mice (n=25), weighing approximately 30 grams (BW=30 g). The study was terminated after 21 days. Two and a half month old, male Swiss Webster mice (25/group/time point), housed 5/cage, were anesthetized with isoflurane anesthesia. Anterior cruciate ligament (ACL) trauma was administered on the right and left knees on day 0 in an attempt to induce OA lesions. Intraperitoneal (ip) treatments with IL-1 inhibitory antibodies IL-1α (9H10) and IL-1β (10G11), alone and in combination, were initiated the day of ACL trauma and continued every 4th day (q4d) for 20 days. The vehicle for the non-treatment control was PBS. Right and left knees were harvested on day 21, and histopathologic alterations were scored and characterized. Data were analyzed using only joints that had proliferative responses indicative of successful instability induction. The proliferative response/instability was scored 0-3, and only unstable joints (scores of 1, 2, or 3) were used in the final analysis. Medial and lateral femoral and tibial cartilage degeneration was scored for severity of cartilage degeneration on a scale 0-5. Four days after the last antibody dose, blood was drawn from all animals from each group for serum harvest. Body weights were recorded weekly. […]
Following 2-3 days in a decalcifying fixative (Surgipath Decalifier, Surgipath Medical Ind., Inc., Richmond Va.), both knee joints were trimmed of extraneous tissue, embedded in the frontal plane and sectioned. […] Slides were examined by a board-certified veterinary pathologist blinded to study group designation, and were scored according to the method below. […]
Medial and lateral femoral and tibial cartilage degeneration were scored for severity of cartilage degeneration using the following system: Depth/extent of chondrocyte and proteoglycan loss with fibrillation: […]
The design of this study was similar to that described above in Example 3.3.1. […] Body weights were recorded weekly. […]

[3] = tested on: IL-1α, IL-1β, or both IL-1α and IL-1β; assay: Functional homogeneity: antigen binding in solution by SEC; settings: 120-minute incubation at 37° C. with antigen in equal molar ratio
Procedure: Because DVD2-Ig binding protein was purified by Protein A chromatography instead of target-specific affinity chromatography, any potential misfolded and/or mismatched VL/VH domains, if present, can be assessed by binding studies against the two different antigens. Such binding analysis was conduced by size exclusion liquid chromatography (SEC). DVD2-Ig binding protein, alone or after a 120-minute incubation period at 37° C. with IL-1α, IL-1β, or both IL-1α and IL-1β, in equal molar ratio, were applied to the column. Each of the antigens was also run alone as controls. […] In the presence of both IL-1α and IL-1β, there was a further and complete shift of the DVD2-Ig binding protein signal, indicating all DVD2-Ig molecules were able to bind both antigens in a uniform fashion.

B1: 10G11: mouse anti-mouse IL-1β monoclonal antibody (clone 10G11) from IL-1α/β double KO mice (antibody, V domains shown)
VH: EVQLQQSGPELVKPGTSVKMSCKTSGYTFTSYVMHWVKQKPGQGLEWIGYIIPYNDNTKYNEKFKGKATLTSDKSSSTAYMELSSLTSEDSAVYYCARRNEYYGSSFFDYWGQGTTLTVSS
VL: DIQMTQSPASLSASVGETVTITCRGSGILHNYLVWYQQKQGKSPQLLVYSAKILADGVPSRFSGSGSGTQYSLKINSLQPEDFGSYYCQHFWSTPFTFGSGTKLEIKR
modifications: heavy chain variable domain of 10G11; light chain variable domain of 10G11
notes: mouse anti-mouse IL-1β monoclonal antibody (clone 10G11) from IL-1α/β double KO mice
- reduction in mean arthritis score compared to control group [1]: 24%
- preventing cartilage degradation (medial tibial cartilage degeneration scores) [2]: not effective in preventing cartilage degradation at any dose tested

B2: DVD2-Ig: DVD-Ig as DVD1-Ig but with linkers ADAAP (light chain) and AKTTPP (heavy chain) (antibody)
VH: MQLSGLTSEDSAMYFCVRFPTGNDYYAMDYWGQGTSVTVSSAKTTPPQIQLVQSGPELKKPGETVKISCKASGYTFRNYGMNWVKQAPGKDLKRMAWINTYTGESTYADDFKGRFAFSLETSASTAYLQINNLKNEDTATYFCARGIYYYGSSYAMDYWGQGTSVTVSS
VL: PVEADDAATYYCQQNNEDPFTFGSGTKLEIKRADAAPNIQMTQTTSSLSASLGDRVTISCRASQDISNCLNWYQQKPDGTVKLLIYYTSRLHSGVPSRFSGSGSGTDYSLTISNLEQEDIATYFCQQGKTLPYAFGGGTKLEINR
- shift of the DVD2-Ig binding protein SEC signal in complex with antigen [3]: 100%
